Assay results taken from EP1730287B1 (Syngenta Participations AG, dated 2011).

Molecular target: T1, NIM450 bait (first 450 amino acids of the NIM1 protein fused to the LexA DNA binding domain) (Arabidopsis, UniProt P0A7C2 1-202; P93002 1-450)
T1 construct: Truncated bait of the yeast two-hybrid screen
T1 sequence (looked up): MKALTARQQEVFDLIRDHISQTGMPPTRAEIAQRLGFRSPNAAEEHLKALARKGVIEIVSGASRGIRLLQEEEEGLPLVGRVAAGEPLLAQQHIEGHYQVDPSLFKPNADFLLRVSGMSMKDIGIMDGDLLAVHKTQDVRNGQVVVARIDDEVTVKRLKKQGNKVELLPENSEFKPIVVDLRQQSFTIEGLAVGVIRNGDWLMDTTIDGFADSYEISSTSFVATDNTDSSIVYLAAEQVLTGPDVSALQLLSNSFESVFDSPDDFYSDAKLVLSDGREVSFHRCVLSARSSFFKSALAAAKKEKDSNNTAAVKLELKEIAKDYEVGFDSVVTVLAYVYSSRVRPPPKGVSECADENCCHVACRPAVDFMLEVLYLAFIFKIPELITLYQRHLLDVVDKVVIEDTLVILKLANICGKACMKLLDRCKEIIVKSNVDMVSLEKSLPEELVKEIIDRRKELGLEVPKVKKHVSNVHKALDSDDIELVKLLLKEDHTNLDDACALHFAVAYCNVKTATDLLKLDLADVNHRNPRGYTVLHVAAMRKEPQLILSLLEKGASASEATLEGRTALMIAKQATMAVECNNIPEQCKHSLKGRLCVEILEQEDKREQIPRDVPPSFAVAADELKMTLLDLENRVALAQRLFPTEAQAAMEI
Assay: yeast two-hybrid (LexA bait, B42 prey; Leu2 and LacZ reporters)

B1: NI16 clone (Arabidopsis NI16 cDNA clone from the pJG4-5 library, fused to the B42 transcriptional activation domain) (other, not shown: large carriers)
chain: MNNSLKKEERVEEDNGKSDGNRGKPSTEVVRTVTEEEVDEFFKILRRVHVATRTVAKVNGGVAEGELPSKKRKRSQNLGLRNSLDCNGVRDGEFDEINRVGLQGLGLDLNCKPEPDSVSLSL
notes: Prey of the yeast two-hybrid screen; also called NI16 protein
B1: no binding.
